No end group written: not given here. *: point of attachment. Biotin = O=C1N[C@H]2[C@H](CS[C@H]2CCCCC(=O)*)N1
B1: human cystatin C (HCC) (other)
chain: SSPGKPPRLVGGPMDASVEEEGVRRALDFAVGEYNKASNDMYHSRALQVVRARKQIVAGVNYFLDVELGRTTCTKTQPNLDNCPFHDQPHLKRKAFCSFQIYAVPWQGTMTLSKSTCQDA
notes: also called intact HCC; complete HCC
B2: HCC (93-120)-peptide (peptide)
peptide: RKAFCSFQIYAVPWQGTMTLSKSTCQDA
notes: Synthetic peptide; also called synthetic HCC (93-120)-peptide
B3: HCC (101-117)-peptide (peptide)
peptide: IYAVPWQGTMTLSKSTC
notes: Synthetic peptide; also called C-terminal HCC peptide
B4: N-terminal peptide Aβ (1-16) (peptide)
peptide: Biotin-GGGGGDAEFRHDSGYEVHHQK
notes: Biotinylated synthetic peptide of the ELISA series

Assays:
β-amyloid (Aβ) Aβ (1-40) = biological target: T1, β-amyloid (Aβ) Aβ (1-40); assay: affinity-MS, Aβ (1-40) on the HCC micro-column
T1 construct: also called Aβ-peptide

N-Cysteinyl-Aβ (1-40) [1] = biological target: T2, N-Cysteinyl-Aβ (1-40) (N-terminal Cys attached via a thioether bond to UltraLink-Iodoacetyl gel); assay: affinity-MS, HCC (93-120) on the immobilized Cys-Aβ (1-40) column
T2 construct: also called Cys-Aβ (1-40); immobilized Cys-Aβ-peptide

N-Cysteinyl-Aβ (1-40) [2] = biological target: T2, N-Cysteinyl-Aβ (1-40); assay: summary of affinity-MS, epitope excision and ELISA results
human cystatin C (HCC) = biological target: B1; assay: ELISA, biotinylated Aβ-peptides on adsorbed HCC

B1: binds (β-amyloid (Aβ) Aβ (1-40)).

B2: binds (N-Cysteinyl-Aβ (1-40) [1]).

B3: binds (N-Cysteinyl-Aβ (1-40) [2]).

B4: no binding (human cystatin C (HCC)).

From patent publication EP2090664A1 (Universität Konstanz, dated 2009)
